Measurements from CN114028561A (JIANGSU QYUNS BIOMEDICAL CO LTD, dated 2022).

Columns and labels:
食蟹猴TSLP = 食蟹猴TSLP (食蟹猴 (cynomolgus monkey), UniProt A0A7N9CAT7 29-159); experiment: cell-based or functional assay
[1] = target: T1, 人胸腺基质淋巴细胞生成素(Human Thymic Stromal Lymphopoietin, TSLP) (human, UniProt Q969D9 29-159); experiment: SPR (Biacore T200), antibody captured on Protein A chip, human TSLP as analyte, 25℃, 1:1 model, mean of three runs
T1 construct: also called 人TSLP; hTSLP

[2] = target: T1, 人胸腺基质淋巴细胞生成素(Human Thymic Stromal …); experiment: cell-based or functional assay
天然TSLP = experiment: cell-based or functional assay

Chain of 食蟹猴TSLP (A0A7N9CAT7 entry or part of it): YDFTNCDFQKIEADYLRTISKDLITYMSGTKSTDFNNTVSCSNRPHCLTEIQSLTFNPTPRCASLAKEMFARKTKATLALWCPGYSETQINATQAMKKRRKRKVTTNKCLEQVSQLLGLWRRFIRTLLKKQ

Row | IC50 of inhibition of cynomolgus TSLP-induced STAT5 phosphorylation in SW756-STAT5-Luciferase reporter cells (食蟹猴TSLP) | Kd [1] | koff [1] | kon [1] | IC50 of inhibition of human TSLP-induced STAT5 phosphorylation in SW756-STAT5-Luciferase reporter cells [2] | IC50 of inhibition of human TSLP-induced TARC (CCL17) release from human PBMC [2] | IC50 of inhibition of human TSLP-induced TARC (CCL17) release from human whole blood [2] | IC50 of inhibition of natural TSLP-induced STAT5 phosphorylation in SW756-STAT5-Luciferase reporter cells (天然TSLP) | Binder
1 | 1.88 ng/mL |  |  |  |  |  |  |  | Tezepelumab (antibody, V domains shown) VH: QMQLVESGGGVVQPGRSLRLSCAASGFTFRTYGMHWVRQAPGKGLEWVAVIWYDGSNKHYADSVKGRFTITRDNSKNTLNLQMNSLRAEDTAVYYCARAPQWELVHEAFDIWGQGTMVTVSS VL: SYVLTQPPSVSVAPGQTARITCGGNNLGSKSVHWYQQKPGQAPVLVVYDDSDRPSWIPERFSGSNSGNTATLTISRGEAGDEADYYCQVWDSSSDHVVFGGGTKLTVLG
2 | 0.889 ng/mL | 0.0175 nM | 2.99e-05 s⁻¹ | 1.74e+06 M⁻¹ s⁻¹ | 0.837 ng/mL | 77.1 ng/mL | 0.839 ng/mL | 0.462 ng/mL | QX008N(HZD8G2-57) (antibody, human IgG1, kappa, V domains shown, also called 抗人TSLP单克隆抗体) VH: EVQLVESGGGLVQPGGSLRLSCAASGFSLSSYYMSWVRQAPGKGLEWVGFISYGGSAYHATWAQGRFTISKDNSKNTLYLQMNSLRAEDTAVYYCAREFRSMTYGAEWGIWGQGTLVTVSS VL: AYQMTQSPSSVSASVGDRVTITCQASESIYDTLAWYQQKPGKAPKLLIYSASSLASGVPSRFSGSGSGTDFTLTISSLQPEDFATYYCQQGYTMPDVDKNPFGGGTKVEIKR
